This data set deals with the molecule itself. The experiment in a line: atomic force microscopy.

What is called stoichiometry N is a count of units in the complex or per binding partner.

B1: UGT1A1 (sample observed by atomic force microscopy) (enzyme, human, UniProt P22309 26-533, looked up)
chain: HAGKILLIPVDGSHWLSMLGAIQQLQQRGHEIVVLAPDASLYIRDGAFYTLKTYPVPFQREDVKESFVSLGHNVFENDSFLQRVIKTYKKIKKDSAMLLSGCSHLLHNKELMASLAESSFDVMLTDPFLPCSPIVAQYLSLPTVFFLHALPCSLEFEATQCPNPFSYVPRPLSSHSDHMTFLQRVKNMLIAFSQNFLCDVVYSPYATLASEFLQREVTVQDLLSSASVWLFRSDFVKDYPRPIMPNMVFVGGINCLHQNPLSQEFEAYINASGEHGIVVFSLGSMVSEIPEKKAMAIADALGKIPQTVLWRYTGTRPSNLANNTILVKWLPQNDLLGHPMTRAFITHAGSHGVYESICNGVPMVMMPLFGDQMDNAKRMETKGAGVTLNVLEMTSEDLENALKAVINDKSYKENIMRLSSLHKDRPVEPLDLAVFWVEFVMRHKGAPHLRPAAHDLTWYQYHSLDVIGFLLAVVLTVAFITFKCCAYGYRKCLGKKGRVKKAHKSKTH
Take B1: the “stoichiometry N” value amounted to 2.

The record behind these values is publication PMC3973126 (Journal of Human Genetics, 2014).
